Biological target: the molecule itself
Assay: cryo-EM structure

B1: E. coli CTP synthase (ecCTPS), wild type (enzyme)
chain: MTTNYIFVTGGVVSSLGKGIAAASLAAILEARGLNVTIMKLDPYINVDPGTMSPIQHGEVFVTEDGAETDLDLGHYERFIRTKMSRRNNFTTGRIYSDVLRKERRGDYLGATVQVIPHITNAIKERVLEGGEGHDVVLVEIGGTVGDIESLPFLEAIRQMAVEIGREHTLFMHLTLVPYMAASGEVKTKPTQHSVKELLSIGIQPDILICRSDRAVPANERAKIALFCNVPEKAVISLKDVDSIYKIPGLLKSQGLDDYICKRFSLNCPEANLSEWEQVIFEEANPVSEVTIGMVGKYIELPDAYKSVIEALKHGGLKNRVSVNIKLIDSQDVETRGVEILKGLDAILVPGGFGYRGVEGMITTARFARENNIPYLGICLGMQVALIDYARHVANMENANSTEFVPDCKYPVVALITEWRDENGNVEVRSEKSDLGGTMRLGAQQCQLVDDSLVRQLYNAPTIVERHRHRYEVNNMLLKQIEDAGLRVAGRSGDDQLVEIIEVPNHPWFVACQFHPEFTSTPRDGHPLFAGFVKAASEFQKRQAK
- stoichiometry N: 4

— article PMC5472220 (Nature structural & molecular biology, 2017)
